Test results: a protein production outcome set (Wang et al. 2014)

Assay: label from the status in PepcDB records

Sequence	protein production
MNIKEYLQQHPQWKKRIHGFIMHPVKTRPYWWIRVWQPFYIKKGRGSVIYSSVRKDLPPFHLFQMGKYSVVEDFSCLNNAVGDIVIGDYCRIGLGNTVIGPIRIDNGVNISQNVVLIGLDHNYQDITQGIIEQGITTSPIHIGEHTIIGANVIVLPGITIGKHCFIGAGCVVTQNIPDYCVTVGNPARIIKRYNPQSQTWEKI	failed
MNIMEIEKTNRMNALFEFYAALLTDKQMNYIELYYADDYSLAEIADEFGVSRQAVYDNIKRTEKILETYEMKLHMYSDYVVRSEIFDDMIAHYPHDEYLQEKISILTSIDNRE	not failed
MNIPAAEPRARMTLAEFHRLLADQHPFAQVLGIDVVDIGHGTARAVLPARDTHQRLGGIVAGPMLMGLADLTMYAAVVGATGQAGAVTANLTIHFLRKTSGAAVIADARVLKTGRLAMAEAILRCDGADEPVAHVVSAWAVPAP	failed
MNIQIKKRFLANLLLFSLFCLKAETLSEDHQILLSSDAFHRGDFAAAQKGYMNLYKQTNKVVYAKEAAISAASLGDIKTAMHLAMLYQKITNNRNDVSINKILVDGYAQMGQIDKAIELLHKIRKEEKTIATDNVLGTLYLTQKRLDKAFPLLNKFYNQVHDEDSLEKLITIYFLQNRKKEGLDLLQSHIDRYGCSEQLCQKALNTFTQFNELDLAKTTFARLYEKNPIVQNAQFYIGVLILLKEFDKAQKIAELFPFDRRLLLDLYTAQKKFDQASKQASLIYQEKKDPKFLGLEAIYHYESLSANKKKLTKEEMLPIIQKLEQATKERQAWLAKTKDKEDAQDAFFYNFLGYSLIDYDMDIKRGMDFVRKALALDSGSVLYLDSLAWGYYKLGNCLEAKKIFSSIAKESIQAEPELKEHNKIIQECKK	failed
MNIQSILSDKIKQAMILAGADQSCDALIRQSGKPQFGDYQANGIMAAAKKLGLNPREFAQKVLDNLQLSDIAEKLEIAGPGFINIFLNPTWLTTEISAALSHK	failed
MNIREIAAKCSKCGYCTTCPTYRIEGWETVSPRGKIQLALKYVDGEIDVDQKIVKDIFKCSVCGLCQEVCPVELPLIDFWEELRRTLVQKGLAPLSVHRKLREITFRNYNPYSGDQERRGDWADFEIKPAKTLYFAGCTASFRLQNLAKSTASVLEKLGIDFTIAGKNEYCCGSPFLRTGQKDIVERLFEKNYAYWQKMGIERIITSCPGCYRTISLDYPKIAEEKGYEFDIEVVHTVSILDKMGEFEKIDLKATYHDPCHLGRHMGMYEEPRNVIKRLGINFVEMERNREQALCCGAGGGLRSQFPEISFEIGRQRVLEAMETGAEYLITCCPFCEYHLSKSAEKLGNRIKVVDLVEIAEKLISP	failed
MNIRITNIQKQLHKYGIDGLLITKKENRQYATGFTGSAGVVLISADQAVFITDFRYVDQAKSQIQDAEIVMHKGNLEKEIAHQVSKLNIQKLGIEENNMTLQQYKNLQKYVHTEMIQVCEIIESIRIIKDTPEIETMKIAAHIADEAFHHILTFLKPGISENDVRDELEFFMRKKGATSSSFQIIVASGVRSSLPHGVASNKIIERSDIVTLDFGALYDGYCSDITRTVAIGEPSEEFKKIYNIVREALKRGTEAIKPGETAKRIDDITRNYITEHGYGQYFGHSTGHGLGLEIHEPLRLSQESKATLEEGMVVTVEPGIYIPNWGGCRIEDDIVITKDGYEVITKSNRELIVIPC	failed
MNIRPSQIKHKQRIASFITHAVVVVMGVLIVSVLFQSYQISSRLMAQEGQRTSVQTSSLIQSLFDFRLAALRIHQDSTAKNASLINALVSRDSSRLDEFFSSVDELELSNAPDLRFISSHDNILWDDGNASFYGIAQQELNKLIRRVAISGNWHLVQTPSEGKSVHILMRRSSLIEAGTGQVVGYLYVGIVLNDNFALLENIRSGSNSENLVLAVDTTPLVSTLKGNEPYSLDYVVHSAKDAMRDSFIVGQTFLEVESVPTYLCVYSIQTNQNVLTLRDNFYFWMAFALISMIGVSIASRWWLQKRIQREIETLMNYTHKLMDLDTKSEFIGSKIYEFDYFGRTLEQSFRRLANKEKQFEDLFNFALSPTMLWNTSGRLIRMNPSAQIQFLREDAQNHFLFEILERQLLPTITNAAQGNNPSDVTTEVDGRVYRWNLSPIMVEGQIISIITQGQDITTIAEAEKQSQAARREAEESARVRAEFLAKMSHELRTPLNGVLGVSQLLKRTPLNDEQREHVAVLCSSGEHLLAVLNDILDFSRLEQGKFRIQKNEFRLKELVCAIDRIYRPLCNEKGLELVVNSNITTAAIVRSDQIRINQILFNLLNNAIKFTHQGSIRVELQLIEGDPLAQLVIQVVDTGIGIREQDLTVIFEPFMQAESTTTREYGGSGLGLTIVHSLVEMLSGQLHVSSEYGIGTRFEIQLPIELVEKPDAPQQLLPAPDPQPLFDKTLRVLLVEDNHTNAFIAQAFCRKYGLDVSWVTDGLQAIEELKIHDYDLVLMDNQLPYLDGVETTRTIKKVLHLPVVVYACTADGLEETRQAFFHAGAEYVLVKPLKEQTLHKALEHFKHHHGQKNAGLN	failed
MNISLSRVHFPVTTLGPGQRLGLWFQGCSIRCAGCISADTWGPGKHPLPLAQVLDDLQPWLARAEGITLSGGEPFDQPEALLALLRGLRERTGVDILVYSGHSLETLQPLLQQAEGLLDALICDPFEQQQAQTLVLRGSDNQRLIFLTELGRQRLSTYQRPLHHEDRALDVMFDDDGSVWMAGIPRRDDVLRLRDLLHDQGHQLQISAHTSRRRLEHHHHHH	failed
MNITGIIAEYNPMHNGHIHHLEKTKEICKSDVILCVMSGDFVQRGEPAIIDKWSRAYAALSSGVDLVIELP	failed
MNIWIRGGTSDANTISKEIKRNFKDSFLILTTTTDFGGKIAENFADFVISEKMNYDNLKKTLVNKKIDVFIDATHPFATHASETGMKISKELNIPYIRYERPVEEFKDVFYVENFEEAAKLALKISKKNIFYMSGIKNLKTVSEIIPIEKLIVRILPTSVPEALKILPSKNIVAMQGVFSENLNKDLITDYNCDVIITKDSGKSGGLYEKVSGAVLAGAKPIIIKRPEINYPLKFEKIDELVNYLKN	failed
MNKERNIIIAKNIRKFLNDSNMSQKKLAELINIKPSTLSDYLNLRSNPSHGVIQRIADVFEVGKSDIDTTYKDDNDITSIYNKLTPPRQENVLNYANEQLEEQNSKGDNVVDINSYKQEKTPVNVNGCVSAGVGERLHDETLFTEMVKGPIPTHDLALKVNGDSMEPMFKDGEIIFVEKTHNIKNGQIGIFIIEEEAYVKKVFVEDDRLTLVSLNKDYDDLHFYRNESVRLIGKVIL	failed
MNKETVLYVVIALLVGILGTVLVVGVVNKQKPAPATAGIPAGGGSPVDYQQRIAEAEKVVANDPKNLQAWIQLGNDYFDTDQAQKAINAYGKALELDPTNANVLTDQGIMFKRVGWFDKAIANFEKAQQLDPKHLQSLYNLGVVYMSDLKQPAKAVKYWERYLELDPMGPNSQQIRTMLEEAKGMAQTPSPQGQLFRK	failed
MNKGILIVLLAGLVSACTHKEKNPLDSLPDMSAVRANLAFTCVHEADHLPPLDPEADQLFQYGRYLQKKEGPKNFNEVARYYRIAAAYGHYKANSNLQGLVSQGIADSPDAPKETIDLAAQLVNQGIPGGYYDIGHYLELGYGLKQDPEMALRYIRKAADLGNPDAQFYVAEKLAPIDNAPAIARQMWQCATDQGHGRAALTLGVDLKTDKLYPDAAKAFQQGAKSGSSTAALSLRDAFHNPSQSDQLNYLAVPHDPERSRRYGLIWKFLKDNDGRSPKVPDIDKIVPLPPAKLPPWDGTFQWEKDQAAAVPPQKPSDELIERLSKAKHLDPATGLPLAKPEQVAQMETEAAPPPARLPLGTIARTGDSCPQDGVWCVSLAKGMVADAEQSFLKGMELPSLTIYQPRRFAWMDNWMGVRQQTVPVAWKLVGYIHEA	failed
MNKHLKIQIMNIHSEREIYSARVLNAPIEIVYEAFANPSYLKNWWGPKGFTNTIHAFDLQPGGKWILTMHGPEKGNYENSSIFKIVEPQKLISWERKSKPLFDMEVEFKKLNNLQTEISFRMTFSTKEDCDKIRSFVEPQNEELRSIRKRNSEHKLIPTCIPRHPHWLVFQSRQ	failed
MNKIQVLDPVTIDKIAAGEVIERPASVVKELVENAIDAGATAIVTEIEEGGISMIRIADNGCGMDASDVPNAFLRHSTSKIRTVEDLVHIGSLGFRGEALSSIAAVSQVEMITKTKDQVLGTRYRIAGGKEEELDETGARDGTTFLIRQLFYNTPARRKFLKTPMTEASHVGDLLTRMALSHPEISFQFINNGQSKLHTSGNGNLKDVIYHVYGREIAANLLAADYESPGLKIRGFLGKPLISRGNRNFENYFINGRYVKSSIISKAIEDAYKDFTMQHKYPFVVLHIEIDGEHVDVNVHPTKMELRFNNQQEVYNSIYAAVDHGLHAEELIPHVEVDAPKAAAPMKQEGGAPHAAQKKDNPVVPDRTTSVQPAPSAKKSVPAPEERTLDYFMQKMKERVAAYHAQQNQEAPKKAPDVKVSAQPSEDRREAPSDRVCETPEYAAQQLNLFEENLVERKVQAEYKIIGQVFETYWLVEFNDSLYIIDQHAAHERVLYEKTLKSMKTREFTSQFISPPIVLDLSMQEAELLNQYMDQFTRIGFEIEEFGQESYAVRAVPGNLFGIAKKDLLLQMLDGLSDEVSRNLSPDMIDEKVASMSCKAAVKGNMKLSATEVDSLIGELLTLENPYHCPHGRPTIIAMTKRELEKKFKRIV	failed
MNKKKDILVIGFALFSIFFGAGNLIFPPYIGLTSGGEWLISFLGFIISDVGIIFLSIVAVSKAGSFQGVVGRAGKKFGITLEILMMLCLGPILVVPRTAATTFEMSISPLLGNVNPYVFSVIFFLIVFVLTIKPNKVMDIIGKVLTPLLLISLAVLIIKGIINPIGDLENVNSGKLFMTGITQGYQTMDALGTGGIVALVMASFASKGYKDKKENRMLTIKSALIACIGLAIVYGGLTFLGATSSTLYDSSISQTTLLMNITNAILGSTGTIMLAIVIGLACLTTAVGLTSVTAKYFEDVSNKKLKYKYIVIAICVFSALSSNLGVDKIIEIAVPILSLIYPVSILLVVMSIFEKFVPNNVVVKGATYATLLISLLTVIDSLGIKFEFVHKLPLANLGFNWVVPAIVGGLIAGLVFRKREVVSLEESY	failed
MNKLKYYCLRYQPYLLGVAFFLAIFLVWAIGRAFGFASLHSLLAGIGVFLLLSAGYVLLLYRGVGQHHNLEGLLRDDADQAVLSAAPADREEVSLLRERLLQGIERLHSNKPRGTSNKDALYALPWYLVIGQPAAGKSTMILQSGLNFPYAEREGVRVAGLGGTRNCDWFFSSEAVLLDTAGRYMNSPEEAGKWRGFLQLLRQHRQRRPLNGLIVSVSIADILHGSVEDQERVAKRLRERIQESCALLEVRLPIYLVFTKCDLIPGFTAFYRQLDDAARGEVMGKTFSHKGYEQADWGQRFSNAMDELTRYWGQMASQQLVQQDIQVTRRNDAAYRFPLELAALKPRLHQFVDSLLRANPYQNAEMLRGFYFTAALQADEAQWGCHGQHVAERFALEHAEGTGTAGSQPAPLFINSLFRKVIIPDQHLVALYTSNHRERRRKAGWVGAAGLAALVLCSLWGWSYLNNRATLASIADELAQAKADDQAASGQYTAWRSLDRLRFWAAHYHEQHHAKGVPLGMRLGLYQGHEVEPLLRDRYFATLQNVMLKPTADNLTRTLYLLTTLKVYQRNTRELQPVSGIDSVEAEALPHDNRAQSIANFGKAALDTYVMLSPGQREHADPAFLKAHLPDYWYPAIARQTGKSMAAAGSEAGGNQDYLYASRQITFYSDQIREPDVPRILDNAFLMSSSRNYIDSLRAQSLRAIETITLESDTLFAFGRADFQSLKNEGQHQLSAIASKLLNTPNIGKIIISGHADQLGDSQGNLQVSKQRAQTIRTYLVGKGVPAELVVAQGEGSRKPLVNCDMQQPRTQLIKCLEPNRRVEIEVRGLN	failed
MNKLYIGNLSPAVTADDLRQLFGDRKLPLAGQVLLKSGYAFVDYPDQNWAIRAIETLSGKVELHGKIMEVDYSVSKKLRS	not failed
